Measurements: patent US20210122827A1

Biological target: human GLP-1 receptor (human) (UniProt P43220)
Test: cell-based or functional assay

Chain of human GLP-1 receptor (human) (P43220 24-463): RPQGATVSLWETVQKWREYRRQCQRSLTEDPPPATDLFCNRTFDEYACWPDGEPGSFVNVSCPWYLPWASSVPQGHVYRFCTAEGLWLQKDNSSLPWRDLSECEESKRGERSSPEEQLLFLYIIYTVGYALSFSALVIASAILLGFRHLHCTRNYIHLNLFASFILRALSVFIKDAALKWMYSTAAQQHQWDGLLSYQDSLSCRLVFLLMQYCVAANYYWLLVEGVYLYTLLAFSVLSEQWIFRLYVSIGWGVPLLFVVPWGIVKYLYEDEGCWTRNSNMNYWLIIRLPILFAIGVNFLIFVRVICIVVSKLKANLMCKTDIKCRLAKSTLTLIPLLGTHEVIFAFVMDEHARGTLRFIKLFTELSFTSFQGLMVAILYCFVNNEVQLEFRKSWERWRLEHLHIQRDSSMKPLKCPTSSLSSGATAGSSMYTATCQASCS

EC50, CRE-Luciferase reporter gene assay on CHO-DHFR- cells co-expressing hGLP1R: 0.016 nM
Substance: GMA102 (proprietary fusion protein of GLP-1R antibody and GLP-1)
